{
  "source": "paper PMC3221918",
  "origin": "cited, not measured here",
  "molecular_target": "IL-15RαSu soluble ECD (Homo sapiens) (UniProt Q13261)",
  "sequence (Q13261 31-95)": "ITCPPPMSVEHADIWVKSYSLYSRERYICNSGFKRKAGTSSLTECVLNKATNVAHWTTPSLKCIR",
  "data": [
    {"substance": "IL-15 (from UniProt P40933)", "values": [
      {"measurement": "Kd", "result": 0.1, "unit": "nM"}
    ]}
  ]
}
